Test results from paper PMC9464890, “Exosite binding modulates the specificity of the immunomodulatory enzyme ScpA, a C5a inactivating bacterial protease” (Computational and Structural Biotechnology Journal, 2022).
Changes are numbered by the printed parent chain. In names and notes the source's numbering stands.

B1: ScpA_(S512A) (enzyme)
chain: ANTVTEDTPVTEQAVETPQPTAVSEEVPSSKETKTPQTPDDAEETIADDANDLAPQAPAKTADTPATSKATIRDLNDPSQVKTLQEKAGKGAGTVVAVIDAGFDKNHEAWRLTDKTKARYQSKEDLEKAKKEHGITYGEWVNDKVAYYHDYSKDGKTAVDQEHGTHVSGILSGNAPSETKEPYRLEGAMPEAQLLLMRVEIVNGLADYARNYAQAIRDAVNLGAKVINMSFGNAALAYANLPDETKKAFDYAKSKGVSIVTSAGNDSSFGGKTRLPLADHPDYGVVGTPAAADSTLTVASYSPDKQLTETAMVKTDDQQDKEMPVLSTNRFEPNKAYDYAYANRGMKEDDFKDVKGKIALIERGDIDFKDKVANAKKAGAVGVLIYDNQDKGFPIELPNVDQMPAAFISRKDGLLLKDNPQKTITFNATPKVLPTASGTKLSRFSSWGLTADGNIKPDIAAPGQDILSSVANNKYAKLSGTAMSAPLVAGIMGLLQKQYETQYPDMTPSERLDLAKKVLMSSATALYDEDEKAYFSPRQQGAGAVDAKKASAATMYVTDKDNTSSKVHLNNVSDKFEVTVTVHNKSDKPQELYYQATVQTDKVDGKHFALAPKVLYEASWQKITIPANSSKQVTVPIDASRFSKDLLAQMKNGYFLEGFVRFKQDPTKEELMSIPYIGFRGDFGNLSAVEKPIYDSKDGSSYYHEANSDAKDQLDGDGLQFYALKNNFTALTTESNPWTIIKAVKEGVENIEDIESSEITETIFAGTFAKQDDDSHYYIHRHANGEPYAAISPNGDGNRDYVQFQGTFLRNAKNLVAEVLDKEGNVVWTSEVTEQVVKNYNNDLASTLGSTRFEKTRWDGKDKDGKVVANGTYTYRVRYTPISSGAKEQHTDFDVIVDNTTPEVATSATFSTEDRRLTLASKPKTSQPVYRERIAYTYMDEDLPTTEYISPNEDGTFTLPEEAETMEGATVPLKMSDFTYVVEDMAGNITYTPVTKLLEGHS
B2: ScpA_(S512A,E864A) (enzyme)
chain: B1 chain with E834A
B3: ScpA_(S512A,D889A) (enzyme)
chain: B1 chain with D859A

Tests used:
C5a (Homo sapiens) = C5a (Homo sapiens) (UniProt P01031); assay: SPR; details: cited from earlier work
rhC5a_(R37A) (human) = assay: SPR; BIAcore X100, NTA sensor chip with about 20-25 RU of immobilised His-tagged C5a form (ligand), ScpA form flowed as ligate at 30 uL/min, 25 °C, 10 mM Hepes-KOH pH 7.4, 150 mM NaCl, 0.005% Tween 20, 50 uM EDTA; global fit, 1:1 Langmuir model with drifting baseline; triplicate
rhC5a_(core) (human) = assay: as above
rhC5a_(R46A) (human) = assay: as above
rhC5a_(R40A) (human) = assay: as above
R37A_(core) (human) = assay: as above
R40A_(core) (human) = assay: as above
R46A_(core) (human) = assay: as above

Sequence of C5a (Homo sapiens) (P01031 678-751): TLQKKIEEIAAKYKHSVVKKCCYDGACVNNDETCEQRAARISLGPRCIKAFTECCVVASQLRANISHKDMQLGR

| Molecule | Kd (rhC5a_(R37A) (human)) [µM] | koff (rhC5a_(R37A) (human)) [s⁻¹] | kon (rhC5a_(R37A) (human)) [M⁻¹ s⁻¹] | Kd (rhC5a_(core) (human)) [µM] | koff (rhC5a_(core) (human)) [s⁻¹] | kon (rhC5a_(core) (human)) [M⁻¹ s⁻¹] | Kd (rhC5a_(R46A) (human)) [µM] | koff (rhC5a_(R46A) (human)) [s⁻¹] | kon (rhC5a_(R46A) (human)) [M⁻¹ s⁻¹] | Kd (rhC5a_(R40A) (human)) [µM] | koff (rhC5a_(R40A) (human)) [s⁻¹] | kon (rhC5a_(R40A) (human)) [M⁻¹ s⁻¹] | Kd (R37A_(core) (human)) [µM] | koff (R37A_(core) (human)) [s⁻¹] | kon (R37A_(core) (human)) [M⁻¹ s⁻¹] | Kd (R40A_(core) (human)) [µM] | koff (R40A_(core) (human)) [s⁻¹] | kon (R40A_(core) (human)) [M⁻¹ s⁻¹] | Kd (R46A_(core) (human)) [µM] | koff (R46A_(core) (human)) [s⁻¹] | other results |
| --- | --- | --- | --- | --- | --- | --- | --- | --- | --- | --- | --- | --- | --- | --- | --- | --- | --- | --- | --- | --- | --- |
| ScpA (from UniProt P58099) | – | – | – | – | – | – | – | – | – | – | – | – | – | – | – | – | – | – | – | – | Kd (C5a (Homo sapiens)): 0.035 µM |
| B1 | 0.217 | 0.0176 | 81200 | 0.17 | 0.0075 | 45000 | 0.22 | 0.0226 | 103000 | 0.29 | 0.0274 | 94400 | 0.453 | 0.0151 | 33300 | 1.34 | 0.0258 | 19300 | 0.691 | 0.0152 | kon (R46A_(core) (human)): 22000 M⁻¹ s⁻¹ |
| B2 | 0.0671 | 0.0101 | 150000 | 0.0887 | 0.00438 | 49300 | 0.0621 | 0.0213 | 344000 | 0.346 | 0.0271 | 78500 | 0.532 | 0.0121 | 22800 | 0.751 | 0.0195 | 26100 | 0.624 | 0.0132 | kon (R46A_(core) (human)): 21200 M⁻¹ s⁻¹ |
| B3 | 0.0683 | 0.00934 | 137000 | 0.09 | 0.004 | 44400 | 0.0866 | 0.0129 | 148000 | 0.0949 | 0.0259 | 273000 | 0.384 | 0.0115 | 30100 | 0.734 | 0.0182 | 24800 | 0.965 | 0.0121 | kon (R46A_(core) (human)): 12500 M⁻¹ s⁻¹ |
